These results are taken from publication PMC7708078, “How to limit the speed of a motor: the intricate regulation of the XPB ATPase and translocase in TFIIH” (Nucleic Acids Research, 2020).

The target in series [1] is ctXPB (from E. coli) (Chaetomium thermophilum).
Series [2] shares this target. This is another data set of the same source.
Series [3] concerns ctXPB (Chaetomium thermophilum). As to the kind of experiment: fluorescence polarization. The note with it: 20 mM HEPES pH 7.5, 10 mM KCl, 2.5 mM MgCl2, 1 mM TCEP, 6 nM DNA, room temperature.
The subject of series [4] is ctXPB;ctp52;ctp8 (Chaetomium thermophilum;Chaetomium thermophilum;Chaetomium thermophilum). Put plainly: fluorescence polarization. The note with it: ctp52/ctp8 2:1 to ctXPB; Kd in nM XPB; 2.5 mM MgCl2, no ATP stated; 20 mM HEPES pH 7.5, 10 mM KCl, 2.5 mM MgCl2, 1 mM TCEP, 6 nM DNA, room temperature.
Series [5] concerns the target ctXPB (from E. coli) (Chaetomium thermophilum). The source holds these as a separate data set.

ctp52 (natural protein) yielded an ATPase activity of ctXPB on titration of the co-purified ctp52/ctp34 complex to a fixed amount of ctXPB (Vmax 9.3 μmol ATP*l^−1*min^−1); EC50 in series [1] of 178 nM. In series [2], ctp52_E359K/ctp8 complex displayed an activation of ctXPB's ATPase by the ctp52/ctp8 variant, percent of wild type ctp52/ctp8 (% of wild type) of 5. With “AGCTACCATGCCTGCACGAATTAAGCAATTCGTAATCATGGTCATAGC (double strand) [Cy3-dsDNA 48 bp]”, the dissociation constant Kd in series [3] is 77 nM; in series [4] it was 51 nM. Turning to ctp52_M390E/ctp8 complex, the activation of ctXPB's ATPase by the ctp52/ctp8 variant, percent of wild type ctp52/ctp8 (% of wild type) in series [2] is 57. Still for that read-out and setting: to ctp52_R386L/ctp8 complex belongs 116.

Consider “ctp52/ctp8 complex (wild type, co-purified)”, for which, in series [5], the decrease of the dsDNA-activated ATPase activity of ctXPB (from 58.8 to 18.9 μmol ATP*l^−1*min^−1) on titration of ctp52/ctp8 to an equimolar ctXPB/DNA complex; EC50 was 138 nM. The same substance came in with an ATPase activity of ctXPB on titration of the co-purified ctp52/ctp8 complex to a fixed amount of ctXPB (full activation 20.1 μmol ATP*l^−1*min^−1); EC50 in series [1] of 153 nM. As to ctp52_Y365A/ctp8 complex, the activation of ctXPB's ATPase by the ctp52/ctp8 variant, percent of wild type ctp52/ctp8 (% of wild type) in series [2] was determined as 53. On to ctp52_F387K/ctp8 complex, for which the activation of ctXPB's ATPase by the ctp52/ctp8 variant, percent of wild type ctp52/ctp8 (% of wild type) in series [2] stood at 46. Still for that read-out and setting: then ctp52_E359K/R363E / ctp8 complex, with 6. The same measure, in the same setting: to ctp52_R363E/ctp8 complex belongs 134.
